Assay results from ChEMBL document CHEMBL1135749, “Stereoselective synthesis and antiviral activity of D-2',3'-didehydro-2',3'-dideoxy-2'-fluoro-4'-thionucleosides” (J Med Chem, 2002).

Biological target: Adenosine deaminase (Bos taurus) (UniProt P56658)
Assay: Binding efficiency towards mammalian Adenosine deaminase from calf intestinal mucosa

B1: Adenosine deaminase (Bos taurus), P56658 (protein)
chain: MAQTPAFNKPKVELHVHLDGAIKPETILYYGRKRGIALPADTPEELQNIIGMDKPLSLPEFLAKFDYYMPAIAGCREAVKRIAYEFVEMKAKDGVVYVEVRYSPHLLANSKVEPIPWNQAEGDLTPDEVVSLVNQGLQEGERDFGVKVRSILCCMRHQPSWSSEVVELCKKYREQTVVAIDLAGDETIEGSSLFPGHVKAYAEAVKSGVHRTVHAGEVGSANVVKEAVDTLKTERLGHGYHTLEDATLYNRLRQENMHFEVCPWSSYLTGAWKPDTEHPVVRFKNDQVNYSLNTDDPLIFKSTLDTDYQMTKNEMGFTEEEFKRLNINAAKSSFLPEDEKKELLDLLYKAYGMPSPASAEQCL
With B1 the Km was 18.3 µM.
